The text below walks through data of patent US9005614B2, “PRLR-specific antibody and uses thereof” (Novartis AG, priority 2006, dated 2015).

Series [1] can be described thus: Solubility in PBS and aggregation state by size exclusion chromatography. Type of series: physicochemical. The procedure: Elution of the major peak was by […] glycine pH 3.5. Pooled material was dialyzed into PBS and concentrated in centrifugal concentrators with a nominal molecular weight cut-off of 30 kD. Final purities were >95% and overall yields were approximately 60%. The final pools were assayed for endotoxin using an Endosafe PTS LAL unit (Charles River) or the QCL-1000 Chromogenic LAL Endpoint Assay (Lonza), and the results were <0.05 EU/mg (below the limit of detection) for all the antibodies. Aggregation state of the chimeric antibody he.06.642-2 was determined to be monomeric by SEC on a Superdex 200 10/300 GL column (GE Healthcare).

A further series addresses T1, Rat PRLR (Rattus norvegicus, UniProt P05710).
T1 sequence (P05710 20-229 limits assumed): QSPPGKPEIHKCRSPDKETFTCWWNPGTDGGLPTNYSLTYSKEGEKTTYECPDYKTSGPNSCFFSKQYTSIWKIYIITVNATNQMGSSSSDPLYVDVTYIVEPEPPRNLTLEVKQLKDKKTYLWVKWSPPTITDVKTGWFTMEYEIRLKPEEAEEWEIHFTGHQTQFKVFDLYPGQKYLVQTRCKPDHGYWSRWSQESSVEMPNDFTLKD
The series can be described thus: Cross species affinity analysis on covalently immobilized antibodies. The note with it: for binding to Rat PRLR (in words): compared with human PRLR. Type of series: binding. The procedure: (§1) In order to compare rat and mouse cross reactivity using covalently immobilized antibodies, a CM4 chip was coupled with he.06.642-2 and he.06.275-4 antibodies via standard EDC-NHS amine coupling chemistries according to the recommended protocol from BIACORE® Inc. The PRLR ECD injections were performed at five concentrations in a three fold titration series starting at 111 nM and going down to 1.37 nM. Regeneration was performed with Glycine pH3.0. The affinity of all of the HE variants of XHA.06.642 and XHA.06.275 are very similar to the affinity of the parental chimeric antibody. […] Antibody he.06.275-4 binds to Cyno PRLR with 5 fold weaker affinity than Human PRLR.

A further series deals with T2, Mouse PRLR (Mus musculus, UniProt Q08501).
T2 sequence (Q08501 20-229 limits assumed): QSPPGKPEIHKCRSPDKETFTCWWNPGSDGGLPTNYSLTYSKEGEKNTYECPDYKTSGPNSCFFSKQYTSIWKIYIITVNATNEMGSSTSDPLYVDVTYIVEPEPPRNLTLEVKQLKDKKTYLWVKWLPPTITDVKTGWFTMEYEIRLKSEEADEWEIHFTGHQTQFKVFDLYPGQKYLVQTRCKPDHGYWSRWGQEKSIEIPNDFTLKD
The series is described as above. Format: binding. The note with it: for binding to Mouse PRLR (in words): compared with human PRLR. The procedure: as §1

In a further series the target is T3, Human PRLR (Homo sapiens, UniProt P16471).
T3 construct: His6 (C); made in house; host or cells: Tn5 insect cells, baculovirus
T3 sequence (P16471 25-234): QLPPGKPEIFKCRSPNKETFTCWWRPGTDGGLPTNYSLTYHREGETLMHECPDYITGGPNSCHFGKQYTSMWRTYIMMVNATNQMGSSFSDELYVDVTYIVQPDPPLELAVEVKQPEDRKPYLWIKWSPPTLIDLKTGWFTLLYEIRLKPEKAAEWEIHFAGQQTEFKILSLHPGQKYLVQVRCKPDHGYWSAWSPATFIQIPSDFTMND
The series is described as above. Format: binding. The note with it: Table 11, Human; covalently immobilized antibody; in 1/s. On the procedure: as §1

The target of another series is T4, cynomolgus PRLR ECD (Macaca fascicularis, UniProt A0A2K5WXK1).
T4 construct: antibodies against human and cynomolgus PRLR ECD
T4 sequence (A0A2K5WXK1 25-234): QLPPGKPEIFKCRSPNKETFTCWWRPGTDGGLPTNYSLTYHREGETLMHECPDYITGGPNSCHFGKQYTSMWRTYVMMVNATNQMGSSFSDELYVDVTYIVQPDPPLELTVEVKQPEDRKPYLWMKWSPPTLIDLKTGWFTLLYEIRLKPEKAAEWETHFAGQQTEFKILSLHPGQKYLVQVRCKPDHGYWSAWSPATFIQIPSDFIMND
Kind of series: Biacore kinetic titration, antibody captured on Protein A/G. Format: binding. The note with it: Table 9, Cyno PRLR ECD; unit not given. On the procedure:
(§2) Affinity of the chimerized and HUMAN ENGINEERED™ antibodies determined by Biacore analysis. Briefly, a CM5 sensor chip (Biacore) immobilized with Protein A/G (Pierce) via NHS/EDC was used to capture approximately 600 RU of antibody on the chip surface. Five concentrations of PRLR ECD beginning at 5 ug/mL (185 nM) and serially diluted at 5× dilution to 0.3 nM were injected from lowest to highest concentration in the kinetic titration injection mode, and 15 minutes of dissociation data was collected. The experiments were double-referenced, i.e. an adjacent flow cell response was subtracted automatically, and the response from a buffer injection experiment was subtracted from the experimental data set. Kinetic and derived parameters (ka, kd and KD) were determined by fitting to a 1:1 Langmuir model using BiaEval software customized to the kinetic titration injection mode. Affinity measurements of both chimeric and all HUMAN ENGINEERED™ antibodies against human and cynomolgus PRLR ECD are summarized in Table 9 and Table 10.

Another series has as its target T5, human PRLR ECD (Homo sapiens, UniProt P16471).
T5 construct: His6 (C); made in house; host or cells: Tn5 insect cells, baculovirus
T5 sequence (P16471 25-234): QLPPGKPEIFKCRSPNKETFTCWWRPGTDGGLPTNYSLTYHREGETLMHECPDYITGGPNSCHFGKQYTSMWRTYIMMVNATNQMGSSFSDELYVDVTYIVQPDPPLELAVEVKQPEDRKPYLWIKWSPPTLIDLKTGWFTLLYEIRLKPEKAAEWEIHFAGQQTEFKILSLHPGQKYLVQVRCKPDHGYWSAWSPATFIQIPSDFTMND
The series is described as above. The note with it: Table 9, Human PRLR ECD; unit not given. Type of series: binding. The procedure: as §2

In series [2] the test system is PRL-induced phospho-PRLR and phospho-Stat5. Kind of series: PRL-induced PRLR and STAT5 phosphorylation in T47D cells by Western blot. Type of series: cell-based, human. The procedure:
Cells were pre-treated with 1 ug/ml mAb prior to 30 min stimulation with 50 ng/ml PRL. Lysates were analyzed for the presence of phospho-PRLR using antibodies specific for phosphotyrosine residues 546 and 611 of the PRLR.
T47D cells were incubated with 1 or 10 ug/ml mAb, then treated with or without PRL (50 ng/ml) for an additional 30 min.
The ability of selected antibodies to inhibit PRL-induced phosphorylation of STAT5 and AKT was determined as follows. Cells were seeded overnight in 6 well plates at a density of 3×10^5 cells/ml in phenol red-free RPMI/10% FBS. The following day, media was replaced with serum-free RPMI for 30 min. In some experiments, anti-PRLR or non-specific control antibodies were incubated with cells during this serum starvation period. 50 ng/ml PRL was then added to wells for 30 min, after which cells were rinsed once in PBS and lysed in a buffer consisting of 50 mM Tris-HCl, pH7.5, 150 mM NaCl, 1 mM EDTA, 1% NP-40, 1 mM Na3OV4, 50 mM NaF, 0.25% deoxycholate and protease inhibitors. Tubes were spun down at 14,000 rpm in a refrigerated microfuge and lysates were quantitated using BCA reagents. 30 μg of whole cell lysate was separated by 10% SDS-PAGE and proteins were detected using phospho-specific antibodies for STAT5A/B (Y694/Y699, Upstate) or PRLR (Y546/Y611, in-house) and ECL. Equal protein loading was determined by staining with antibodies specific for total STAT5 (BD) or PRLR (Zymed) or AKT (Cell Signalling). Results of a representative assay of effect of a PRLR-specific antibody on PRLR intracellular phosphorylation are shown in FIG. 6.
Chimeric mAbs were analyzed for their ability to inhibit the proliferation and survival of BaF/PRLR cells [FIG. 11]. […] In order to assess the PRLR signal-neutralizing capability of the chimeric antibodies in a human breast cancer model, T47D cells were treated with 1 ug/ml mAb for 30 min prior to PRL stimulation. At the same time, additional cell samples were incubated with antibody alone to examine any potential agonism gained through chimerization of the antibody candidates.
Antibodies were assessed in target modulation and cell proliferation assays. FIG. 16 depicts the effect of 2 concentrations of chXHA.06.642 and HUMAN ENGINEERED™ antibodies he.06.642-1 and he.06.642-2, on PRL-induced Stat5 phosphorylation in T47D cells. […] Similar results were found for chXHA.06.275 variants.

In a further series the target is T6, Cyno PRLR (Macaca fascicularis, UniProt A0A2K5WXK1).
T6 construct: antibodies against human and cynomolgus PRLR ECD
T6 sequence (A0A2K5WXK1 25-234): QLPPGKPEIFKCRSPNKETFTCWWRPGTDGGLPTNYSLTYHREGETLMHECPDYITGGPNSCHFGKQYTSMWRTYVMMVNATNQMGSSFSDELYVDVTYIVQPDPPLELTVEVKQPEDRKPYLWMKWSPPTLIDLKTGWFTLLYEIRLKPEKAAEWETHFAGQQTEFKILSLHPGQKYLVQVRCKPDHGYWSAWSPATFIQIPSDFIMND
The series can be described thus: Cross species affinity analysis on covalently immobilized antibodies. The note with it: Table 11, Cyno; covalently immobilized antibody; in 1/s. Format: binding, cynomolgus. The procedure:
as §1

B1: he.06.642-2: HUMAN-ENGINEERED antibody from XHA.06.642; variable regions SEQ ID NO: 88 and SEQ ID NO: 90 by order of listing (antibody, V domains shown)
VH: EVQLVESGGGLVQPGGSLRLSCAVSGFTFSSYGMSWVRQAPGKGLEWVATVSSGGTYTYYPDSVKGRFTISRDNSKNTLYLQMNSLRAEDTAVYYCARHRGNYYATYYYAMDYWGQGTLVTVSS
VL: DIVLTQSPDSLAVSLGERATINCKASKSVSTSGYTYMHWYQQKPGQPPKLLIYLASNRESGVPDRFSGSGSGTDFTLTISPVQAEDVATYYCQHSGELPPSFGQGTKLEIK
As for B1, the “aggregation state by size exclusion chromatography” value in series [1] is given as “monomeric”. Besides, the “Rat KD/Human KD” value with Rat PRLR was “Rat KD/Human KD = 0.75”. Moreover, the koff is listed as 1.4E−04 with Rat PRLR (Table 11, Rat, covalently immobilized antibody, in 1/s); 3.1E−04 with Mouse PRLR (Table 11, Murin, covalently immobilized antibody, in 1/s); 9.1E−04 with Human PRLR; 6.0E−03 with Cyno PRLR. Also, the “binding to Rat PRLR (in words)” value with Rat PRLR is “equivalent affinity”. Also, the “Murine KD/Human KD” value in the series with Mouse PRLR is on record as “Murine KD/Human KD = 1”. Further, the “binding to Mouse PRLR (in words)” value in the series with Mouse PRLR is reported as “equivalent affinity”. Besides, the results for the ka with cynomolgus PRLR ECD and in the series with human PRLR ECD were 1.8E+05 and 1.7E+05, respectively. Besides, the kd came out at 8.3E−03 in the series with cynomolgus PRLR ECD and 5.3E−04 with human PRLR ECD. Moreover, in series [2] (T47D cells treated with mAb alone), the “agonism: induction of PRLR signaling by antibody alone” value is recorded as “neither antibody displayed any agonistic activity”. For the same molecule, the “block of PRL-induced signaling (phospho-PRLR, phospho-Stat5)” value in series [2] (T47D cells, 1 or 10 ug/ml mAb, then PRL 50 ng/ml 30 min) was “complete p-Stat5 signal abrogation”.

B2: he.06.275-4: HUMAN-ENGINEERED antibody from XHA.06.275; variable regions SEQ ID NO: 92 and SEQ ID NO: 94 by order of listing (antibody, V domains shown)
VH: QVQLQESGPGLVKPSQTLSLTCTVSGYSITSDYAWNWIRQFPGKGLEWMGYISYSGSTSYNPSLKSRITISRDTSKNQFSLQLNSVTAADTAVYFCARDYGYVFDYWGQGTTLTVSS
VL: DVQITQSPSSLSASPGDRITLTCRASKNIYKYLAWYQEKPGKANKLLIYSGSTLHSGIPSRFSGSGSGTDFTLTISSLQPEDFAMYYCQQHNDYPYTFGQGTKLEIK
In the case of B2, the “binding to Rat PRLR (in words)” value in the series with Rat PRLR was “does not bind effectively”. In addition, the “Murine KD/Human KD” value in the series with Mouse PRLR is recorded as “Murine KD/Human KD = 13,548”. Moreover, the “binding to Mouse PRLR (in words)” value with Mouse PRLR was “does not bind effectively”. Besides, the koff worked out at 4.5E−04 with Human PRLR and 8.2E−04 with Cyno PRLR. For the same molecule, the ka with cynomolgus PRLR ECD is 3.6E+05; with human PRLR ECD, 6.2E+05. The kd with cynomolgus PRLR ECD was 6.0E−04; with human PRLR ECD, 3.2E−04.
